Data as given in article PMC5929103.

What was measured:
Experiment in all cases: enzyme inhibition kinetics
[1] = target: human cationic trypsin, active (human)
[2] = target: human anionic trypsin, active (human) (UniProt P07478)
[3] = target: human mesotrypsin, active (human) (UniProt P35030)
Chain of UniProt P35030 (P35030 81-304): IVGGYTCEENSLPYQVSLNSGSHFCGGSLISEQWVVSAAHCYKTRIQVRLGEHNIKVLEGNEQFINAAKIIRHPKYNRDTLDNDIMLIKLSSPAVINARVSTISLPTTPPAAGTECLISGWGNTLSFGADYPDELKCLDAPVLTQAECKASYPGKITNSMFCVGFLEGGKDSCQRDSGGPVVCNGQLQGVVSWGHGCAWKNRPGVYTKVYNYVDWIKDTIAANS

Chain of UniProt P07478 (P07478 24-247): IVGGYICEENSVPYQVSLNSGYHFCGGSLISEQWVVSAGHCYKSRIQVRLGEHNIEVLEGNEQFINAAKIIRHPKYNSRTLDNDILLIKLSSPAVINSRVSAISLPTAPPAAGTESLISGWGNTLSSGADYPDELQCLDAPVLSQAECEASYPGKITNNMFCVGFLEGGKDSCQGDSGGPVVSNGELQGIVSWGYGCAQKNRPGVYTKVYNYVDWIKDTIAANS

Row | Substance | Ki [1] | Ki [2] | Ki [3]
1 | APPI_(M17G/I18F/F34V), soluble form (designed binder) | 0.023 nM |  | 
2 | APPI_(P13W/M17G/I18F/F34V), soluble form (designed binder) | 0.019 nM | 0.0038 nM | 0.069 nM
3 | wild-type amyloid β-protein precursor Kunitz protease inhibitor domain (APPI) (from UniProt P05067 289-344) (domain or fragment) | 0.0041 nM |  | 
